Experimental data as given in the supplement of paper PMC6757056.
± gives the standard deviation of the averaged measurements.

B1: library; a variant is named by its letters at N, in order (parent)
chain: GCUGUCACCGGAAUACCAGCAUCGUCUUGAUGCCCUUGGAAGUCCGGUCUGAUGAGUCCNNNNNGGACGAAACAGC

Key:
theophylline [1] = variants of: B1; assay: FACS-Seq fitted mean relative fluorescence mCherry/BFP without ligand (log10 relative fluorescence); higher = higher reporter protein expression; conditions: HEK293T, ligand present: no
Description: (§1)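 Hammerhead (sTRSV) ribozyme switch libraries with a ligand aptamer grafted on stem I and a randomized N4-6 loop II, cloned into the 3' UTR of mCherry and transiently transfected into HEK293T cells; RNA-Seq 72 h post transfection with ligand added 1 h before transfection; RNA read count / plasmid DNA read count normalized to the non-cleaving sTRSVctl (x100), log10; sequences with >100 DNA reads. FACS-Seq: lentiviral library sorted into 6 bins after 48 h ligand, log-normal fit mean of mCherry/BFP scaled to controls. Printed sequences are partial switch sequences.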

theophylline [2] = variants of: B1; assay: normalized RNA/DNA level with ligand (relative to sTRSVctl = 100) (log10 (% of sTRSVctl)); higher = less ribozyme self-cleavage, higher mRNA level; conditions: ligand concentration (+) RNA-Seq: 5 mM, HEK293T, reporter: mCherry (pCS4076), ligand present: yes
Description: as §1

theophylline [3] = variants of: B1; assay: normalized RNA/DNA level without ligand (relative to sTRSVctl = 100) (log10 (% of sTRSVctl)); higher = less ribozyme self-cleavage, higher mRNA level; conditions: HEK293T, reporter: mCherry (pCS4076), ligand present: no
Description: as §1

theophylline [4] = variants of: B1; assay: FACS-Seq fitted mean relative fluorescence mCherry/BFP with ligand (log10 relative fluorescence); ligand concentration (+) FACS-Seq: 1 mM; higher = higher reporter protein expression; conditions: HEK293T, ligand present: yes
Description: as §1

ACCCA
FACS-Seq fitted mean (log10) (theophylline [1]): 0.9 ± 0.021
normalized RNA/DNA level with ligand (log10) (theophylline [2]): 2.02 ± 0.044
normalized RNA/DNA level without ligand (log10) (theophylline [3]): 1.93 ± 0.066
FACS-Seq fitted mean (log10) (theophylline [4]): 0.869 ± 0.033

ACCCU
FACS-Seq fitted mean (log10) (theophylline [1]): 0.718 ± 0.011
normalized RNA/DNA level with ligand (log10) (theophylline [2]): 2.023 ± 0.016
normalized RNA/DNA level without ligand (log10) (theophylline [3]): 1.93 ± 0.091
FACS-Seq fitted mean (log10) (theophylline [4]): 0.587 ± 0.09

ACACA
FACS-Seq fitted mean (log10) (theophylline [1]): 0.454 ± 0.049
normalized RNA/DNA level with ligand (log10) (theophylline [2]): 1.94 ± 0.051
normalized RNA/DNA level without ligand (log10) (theophylline [3]): 1.77 ± 0.036
FACS-Seq fitted mean (log10) (theophylline [4]): 0.653 ± 0.055

ACACU
FACS-Seq fitted mean (log10) (theophylline [1]): 0.829 ± 0.042
normalized RNA/DNA level with ligand (log10) (theophylline [2]): 2.04 ± 0.094
normalized RNA/DNA level without ligand (log10) (theophylline [3]): 1.85 ± 0.14
FACS-Seq fitted mean (log10) (theophylline [4]): 0.802 ± 0.071

ACACG
FACS-Seq fitted mean (log10) (theophylline [1]): 1.12 ± 0.1
normalized RNA/DNA level with ligand (log10) (theophylline [2]): 1.93 ± 0.024
normalized RNA/DNA level without ligand (log10) (theophylline [3]): 1.8 ± 0.026
FACS-Seq fitted mean (log10) (theophylline [4]): 1.2 ± 0.07

ACACC
FACS-Seq fitted mean (log10) (theophylline [1]): 0.952 ± 0.087
normalized RNA/DNA level with ligand (log10) (theophylline [2]): 1.99 ± 0.12
normalized RNA/DNA level without ligand (log10) (theophylline [3]): 2 ± 0.022
FACS-Seq fitted mean (log10) (theophylline [4]): 1.11 ± 0.06

GCACU
FACS-Seq fitted mean (log10) (theophylline [1]): 1.01 ± 0.018
normalized RNA/DNA level with ligand (log10) (theophylline [2]): 1.966 ± 0.019
normalized RNA/DNA level without ligand (log10) (theophylline [3]): 1.86 ± 0.022
FACS-Seq fitted mean (log10) (theophylline [4]): 1 ± 0.083

CCCGA
FACS-Seq fitted mean (log10) (theophylline [1]): 0.977 ± 0.19
normalized RNA/DNA level with ligand (log10) (theophylline [2]): 1.956 ± 0.018
normalized RNA/DNA level without ligand (log10) (theophylline [3]): 1.93 ± 0.077
FACS-Seq fitted mean (log10) (theophylline [4]): 0.827 ± 0.058

CCCGC
FACS-Seq fitted mean (log10) (theophylline [1]): 1.3 ± 0.15
normalized RNA/DNA level with ligand (log10) (theophylline [2]): 2.02 ± 0.021
normalized RNA/DNA level without ligand (log10) (theophylline [3]): 2.088 ± 0.019
FACS-Seq fitted mean (log10) (theophylline [4]): 1.05 ± 0.028

CCCGU
FACS-Seq fitted mean (log10) (theophylline [1]): 0.812 ± 0.08
normalized RNA/DNA level with ligand (log10) (theophylline [2]): 1.91 ± 0.23
normalized RNA/DNA level without ligand (log10) (theophylline [3]): 1.894 ± 0.014
FACS-Seq fitted mean (log10) (theophylline [4]): 0.82 ± 0.087

AAUGC
FACS-Seq fitted mean (log10) (theophylline [1]): 0.537 ± 0.0095
normalized RNA/DNA level with ligand (log10) (theophylline [2]): 2 ± 0.06
normalized RNA/DNA level without ligand (log10) (theophylline [3]): 1.89 ± 0.025
FACS-Seq fitted mean (log10) (theophylline [4]): 0.692 ± 0.11

AAUGU
FACS-Seq fitted mean (log10) (theophylline [1]): 0.7078 ± 0.0026
normalized RNA/DNA level with ligand (log10) (theophylline [2]): 1.99 ± 0.056
normalized RNA/DNA level without ligand (log10) (theophylline [3]): 1.77 ± 0.23
FACS-Seq fitted mean (log10) (theophylline [4]): 0.788 ± 0.011

AAUGG
FACS-Seq fitted mean (log10) (theophylline [1]): 0.773 ± 0.076
normalized RNA/DNA level with ligand (log10) (theophylline [2]): 2.06 ± 0.078
normalized RNA/DNA level without ligand (log10) (theophylline [3]): 1.73 ± 0.094
FACS-Seq fitted mean (log10) (theophylline [4]): 0.962 ± 0.016

AAUGA
FACS-Seq fitted mean (log10) (theophylline [1]): 0.467 ± 0.024
normalized RNA/DNA level with ligand (log10) (theophylline [2]): 1.964 ± 0.0034
normalized RNA/DNA level without ligand (log10) (theophylline [3]): 1.46 ± 0.08
FACS-Seq fitted mean (log10) (theophylline [4]): 0.691 ± 0.086

UCCAA
FACS-Seq fitted mean (log10) (theophylline [1]): 0.973 ± 0.14
normalized RNA/DNA level with ligand (log10) (theophylline [2]): 2.04 ± 0.078
normalized RNA/DNA level without ligand (log10) (theophylline [3]): 1.84 ± 0.09
FACS-Seq fitted mean (log10) (theophylline [4]): 0.912 ± 0.053

UCCAU
FACS-Seq fitted mean (log10) (theophylline [1]): 1.01 ± 0.016
normalized RNA/DNA level with ligand (log10) (theophylline [2]): 2.012 ± 0.019
normalized RNA/DNA level without ligand (log10) (theophylline [3]): 1.96 ± 0.054
FACS-Seq fitted mean (log10) (theophylline [4]): 1.05 ± 0.11

UCCAC
FACS-Seq fitted mean (log10) (theophylline [1]): 0.712 ± 0.067
normalized RNA/DNA level with ligand (log10) (theophylline [2]): 2.05 ± 0.04
normalized RNA/DNA level without ligand (log10) (theophylline [3]): 1.95 ± 0.12
FACS-Seq fitted mean (log10) (theophylline [4]): 0.737 ± 0.036

UCCAG
FACS-Seq fitted mean (log10) (theophylline [1]): 0.956 ± 0.042
normalized RNA/DNA level with ligand (log10) (theophylline [2]): 2.01 ± 0.07
normalized RNA/DNA level without ligand (log10) (theophylline [3]): 1.92 ± 0.1
FACS-Seq fitted mean (log10) (theophylline [4]): 1.07 ± 0.13
